The values that follow come from paper PMC13065467, “Assembly and phosphoregulatory mechanisms of the budding yeast outer kinetochore KMN complex” (The Journal of Cell Biology, 2026).

The subject of data set [1] is K^HB-RWDM^Dsn1Δ257_Δhead1. Briefly: ITC, Dsn1 peptide titrated into head 1-deleted complex. Type of data set: binding, S. cerevisiae. To be noted: 25°C, 25 mM HEPES pH 7.5, 100 mM NaCl, 1 mM TCEP, syringe 0.3 mM, cell 0.025 mM, two experiments. A general note: Isothermal titration calorimetry measures the heat released or taken up as one component is titrated into another.

Data set [2] concerns K^HB-RWDM^Dsn1Δ257_Mis12-3A. Put plainly: ITC, Dsn1 peptide titrated into Mis12-3A mutant complex. The settings on record: ratio of ITC KD values, Mis12-3A mutant complex versus K^HB-RWDM^Dsn1Δ257. The data set is classed as binding, S. cerevisiae. The method, then: Dsn1^228–254 and Dsn1^228–254,S240E,S250E peptides were synthesized by Alta BioScience with N-terminal acetylation and C-terminal GSAW extension and amidation. The final sequence of Dsn1^228–254 was […], and Dsn1^228–254,S240E,S250E was […]. All protein complexes and peptides used in a given experiment were dialyzed for a minimum of 16 h and/or buffer-exchanged by size-exclusion chromatography into the same batch of ITC buffer (25 mM HEPES, pH 7.5, 100 mM NaCl, 1 mM TCEP). All experiments were performed using an Auto-iTC200 instrument (Malvern Instruments) at 25°C. In each experiment, 360 μl of protein complex was pipetted into the calorimeter cell. The protein complex loaded into the calorimeter cell contained Knl1c:Mis12c^Mtw1c with Knl1^Spc105_HB-RWD and Dsn1^Δ1–257 and either wild-type Mis12^Mtw1 (K^HB-RWDM ^Dsn1Δ257) or Mis12^Mtw1_E69A,E73A,E77A mutant (K^HB-RWDM ^Dsn1Δ257_Mis12-3A). Wild-type constructs of all other Knl1c and Mis12c^Mtw1c subunits were included. Titration of either the Dsn1^228–254 or Dsn1^228-254,S240E,S250E peptide into the cell was then performed by an initial injection of 0.5 μl, followed by 19 further injections of 2.0 μl each. […] Titrations were performed in duplicate or triplicate, and reported KD and n values were calculated as an average from all replicate results.

Data set [3] concerns the target T1, Knl1c:Mis12c^Mtw1c complex K^HB-RWDM^Dsn1Δ257 (Knl1^Spc105 residues 1–444 and Dsn1 residues 1–257 deleted) (S. cerevisiae, UniProt P53148 445-917; Q04431 1-385; P40568 258-576; P39731 1-289; P47149 1-201; …).
T1 construct: Knl1^Spc105_HB-RWD: Knl1^Spc105, S. cerevisiae S288c, residues 445-917; ZWINT^Kre28, S. cerevisiae S288c; no truncation stated; Mis12^Mtw1, S. cerevisiae S288c; wild-type, no truncation stated; Nnf1, S. cerevisiae S288c; Nsl1, S. cerevisiae S288c; source: High-5 insect cells (two baculoviruses), purified (Strep-Tactin, SEC); copies: + + + + +
Put plainly: SEC; 4 μM Knl1c:Mis12c^Mtw1c complex mixed with 4 μM CENP-C^Mif2_1-63 or CENP-QU in KMN buffer, 30 min on ice; Superose 6 3.2/300 in 20 mM HEPES pH 7.5, 150 mM NaCl, 1 mM TCEP; fractions on SDS-PAGE. The settings on record: both partners purified. For orientation: In gel filtration, larger molecules generally elute earlier.

For data set [4], the target named is T2, Knl1c:Mis12c^Mtw1c complex K^HB-RWDM^2E (full-length Dsn1 with S240E and S250E phosphomimetic mutations) (S. cerevisiae, UniProt P53148 445-917; Q04431 1-385; P40568 1-576; P39731 1-289; P47149 1-201; Q12143 …, S240E | S250E).
T2 construct: Knl1^Spc105_HB-RWD: Knl1^Spc105, S. cerevisiae S288c, residues 445-917; ZWINT^Kre28, S. cerevisiae S288c; no truncation stated; Dsn1^S240E,S250E: full-length Dsn1, S. cerevisiae S288c, with phosphomimetic mutations; Mis12^Mtw1, S. cerevisiae S288c; Nnf1, S. cerevisiae S288c; Nsl1, S. cerevisiae S288c; also called KM^2E; K^HB-RWDM^S240E,S250E; source: High-5 insect cells (baculovirus), purified …
The description is as above. To be noted: both partners purified.

The target of data set [5] is T3, Knl1c:Mis12c^Mtw1c complex K^HB-RWDM^Dsn1Δ226-2E (Dsn1 residues 1–226 deleted, with S240E and S250E … (S. cerevisiae, UniProt P53148 445-917; Q04431 1-385; P40568 227-576; P39731 1-289; P47149 1-201; …, S240E | S250E).
T3 construct: Knl1^Spc105_HB-RWD: Knl1^Spc105, S. cerevisiae S288c, residues 445-917; ZWINT^Kre28, S. cerevisiae S288c; no truncation stated; Dsn1^Δ1–226,S240E,S250E: Dsn1, S. cerevisiae S288c, residues 1-226 deleted, phosphomimetic mutations; Mis12^Mtw1, S. cerevisiae S288c; Nnf1, S. cerevisiae S288c; Nsl1, S. cerevisiae S288c; also called K^HB-RWDM^Dsn1Δ226,S240E,S250E; source: High-5 insect cells …
The description is as above. To be noted: both partners purified.

In another data set the test system is K^HB-RWDM. Put plainly: analytical SEC reconstitution with K^HB-RWDM. The data set is classed as binding, S. cerevisiae. The settings on record: Superose 6 3.2/300, 4 μM each, 20 mM HEPES pH 7.5, 150 mM NaCl, 1 mM TCEP, 30 min on ice. The method, then:
(§1) To test the effect of deleting or mutating regions of the Dsn1 N-terminal disordered domain on Mis12c^Mtw1c auto-inhibition, 4 μM concentrations of Knl1c:Mis12c^Mtw1c complexes containing Knl1^Spc105_HB-RWD and different Dsn1 constructs were mixed with 4 μM concentrations of either CENP-C^Mif2_1-63 or CENP-QU in KMN buffer. Knl1c:Mis12c^Mtw1c complexes used contained one of the following Dsn1 constructs: K^HB-RWDM, contained full-length and wild-type Dsn1; K^HB-RWDM^S240E,S250E, contained Dsn1^S240E,250E; K^HB-RWDM^Dsn1Δ226, contained Dsn1^Δ1–226; K^HB-RWDM^Dsn1Δ257, contained Dsn1^Δ1–257; K^HB-RWDM^Dsn1Δ226,S240E,S250E, contained Dsn1^Δ1–226,S240E,S250E. Protein mixtures were incubated together on ice for 30 min to attempt to reconstitute a protein complex. 100 μl of individual proteins or protein complexes or reconstitution mixtures was loaded onto a Superose 6 3.2/300 size-exclusion chromatography column (Cytiva) equilibrated in (20 mM HEPES, pH 7.5, 150 mM NaCl, 1 mM TCEP), and 100 μl eluate fractions were collected. Aliquots of each indicated eluate fraction were mixed 1:1 (volume/volume) with 2xLDS-PAGE loading buffer supplied by Thermo Fisher Scientific, supplemented with DTT, boiled for 3 min at 95°C, and analyzed by SDS-PAGE.

Another data set concerns K^HB-RWDM^Dsn1Δ257. Briefly: analytical SEC reconstitution with K^HB-RWDM^Dsn1Δ257. The data set is classed as binding, S. cerevisiae. To be noted: Superose 6 3.2/300, 4 μM each, pH 7.5, Dsn1 residues 1–257 deleted. The method, then:
as §1

In another data set the test system is K^HB-RWDM^Dsn1Δ226. Briefly: analytical SEC reconstitution with K^HB-RWDM^Dsn1Δ226. The data set is classed as binding, S. cerevisiae. The settings on record: Superose 6 3.2/300, 4 μM each, pH 7.5, Dsn1 residues 1–226 deleted. The method, then: as §1
In the next data set the test system is K^HB-RWDM^2E. Put plainly: analytical SEC reconstitution with K^HB-RWDM^2E. To be noted: Superose 6 3.2/300, 4 μM each, pH 7.5, full-length Dsn1 S240E,S250E. The data set is classed as binding, S. cerevisiae. The method, then:
as §1

The test system of the next data set is K^HB-RWDM^Dsn1Δ226-2E. Briefly: analytical SEC reconstitution with K^HB-RWDM^Dsn1Δ226-2E. Type of data set: binding, S. cerevisiae. The settings on record: Superose 6 3.2/300, 4 μM each, pH 7.5, Dsn1 Δ1–226,S240E,S250E. The method, then: as §1
In another data set the test system is KM2E. Briefly: SPR, binding to KM2E (review history, removed from manuscript). To be noted: data removed from manuscript, review history only. Details: species or system S. cerevisiae. A general note: In SPR one partner is held on a chip, and binding of the other changes the refractive index at the surface.
The target in data set [6] is Knl1c:Mis12c^Mtw1c complex K^HB-RWDM^Dsn1Δ257_Mis12-3A (K^HB-RWDM^Dsn1Δ257 containing mutant … (S. cerevisiae, UniProt P53148 445-917)); Q04431 1-385; P40568 258-576; P39731 1-289; P47149 1-201; …, E69A | E73A | E77A (construct name; the text of the results says Asp77)). Briefly: ITC.

With “Ac-PHYIQRTRERKKSIGSQRGRRLSMLASGSAW-NH2 [Dsn1^228-254]”, the “binding (ITC)” value in data set [1] is “did not bind”. For the same molecule, the “increase of KD versus K^HB-RWDM^Dsn1Δ257” value in data set [2] was “threefold”.

B1: CENP-C^Mif2 residues 1–63 (CENP-C^Mif2_1–63) (domain or fragment, S. cerevisiae, UniProt P35201 1-63, looked up)
chain: MDYMKLGLKSRKTGIDVKQDIPKDEYSMENIDDFFKDDETSLISMRRKSRRKSSLFLPSTLNG
notes: CENP-C^Mif2, S. cerevisiae S288c, residues 1-63; source: E. coli BL-21 CodonPlus-RIL, purified (HisTrap, Ulp1 cleavage, reverse IMAC, Resource S, SEC); not shown: 6xHis-SUMO, N-terminal, cleaved
Turning to B1, the binding result in [3], in data set [4] and in data set [5] was “binds” throughout.

B2: CENP-C^Mif2_1-63: recombinant N-terminal fragment of S. cerevisiae CENP-C^Mif2 comprising residues 1–63 (protein)
chain: B1 chain
modifications: left off: 6xHis-SUMO, N-terminal, cleaved
By Kd is commonly meant the equilibrium constant for the complex coming apart. Lower therefore signals tighter binding. For B2, the “binding by SEC” value is reported as “did not bind” with K^HB-RWDM (full-length wild-type Dsn1); “did not” in the data set with K^HB-RWDM (full-length wild-type Dsn1, listed as CENP-C N-terminus (residues 1-63)); “did interact” in the data set with K^HB-RWDM^Dsn1Δ257; “did not bind” in the data set on K^HB-RWDM^Dsn1Δ226; “sufficient to abolish Mis12c^Mtw1c auto-inhibition” in the data set with K^HB-RWDM^2E; “bound KM2E” in the data set with K^HB-RWDM^2E (listed as CENP-C (residues 1-63)). Further, the “binding by SEC” value with K^HB-RWDM^Dsn1Δ226-2E was “sufficient to abolish Mis12c^Mtw1c auto-inhibition”. Also, the Kd with KM2E came out at 260 nM.

For Ac-PHYIQRTRERKKSIGSQRGRRLSMLASGSAW-NH2 [Dsn1^228–254 peptide], in data set [6], binding was characterised by a dissociation constant (Kd) of 4060 nM.
